Reference: patent publication US20220153839A1 (NBE THERAPEUTICS, published 2022)
Substitutions are numbered along the chain they refer to.

B1: HuXBR1-402(15) (mAb290) (antibody, human IgG1, V domains shown)
VH: QVQLQESGPGLVKPSETLSLTCTVSGFDISSYYMSWVRQPPGKGLEWIGAIGISGNAYYASWAKSRVTISRDTSKNQFSLKLSSVTAADTAVYYCARDHPTYGMDLWGPGTLVTVSS
VL: SYELTQPPSVSVAPGKTARITCEGNNIGSKAVHWYQQKPGQAPVLVIYDDDERPSGIPERFSGSNSGNTATLTISRVEAGDEADYYCQVWDSSAYVFGGGTKLTVLG
notes: Humanized IgG (human IgG1 constant regions, lambda)
B2: HuXBR1-402(17) (mAb291) (antibody, human IgG1, V domains shown)
VH: B1 VH with Q5R
VL: B1 VL
notes: as for B1
B3: HuXBR1-402(8) (mAb289) (antibody, human IgG1, V domains shown)
VH: B1 VH
VL: SYELTQPPSVSVSPGQTAIITCEGNNIGSKAVHWYQQKPGLSPVLVIYDDDERPSGIPERFSGSNSGNTATLTVSGTQDMDEADYYCQVWDSSAYVFGGGTKLTVLG
notes: as for B1
B4: HuXBR1-402(3) (mAb288) (antibody, human IgG1, V domains shown)
VH: B1 VH with Q5R
VL: B1 VL with P8L, P14L, K16Q, V77A, E78Q
notes: as for B1
B5: HuXBR1-402(26) (mAb296) (antibody, human IgG1, V domains shown)
VH: B1 VH with K43N
VL: B1 VL with P8L, P14L, K16Q, Q41L, V77A, E78Q, K102Q
notes: as for B1
B6: HuXBR1-402(19) (mAb295) (antibody, human IgG1, V domains shown)
VH: B1 VH with K43N
VL: B1 VL
notes: as for B1
B7: ERR1-TOP54 (antibody, IgG1, V domains shown)
VH: QSLEESGGRLVTPGTPLTLTCTASGFSLSDYYMSWVRQAPGEGLEWIGTIYGGSGNTWYATWAKGRFTISKTSTTVDLKITSPTTEDTATYFCARDFGLSTGGLWGPGTLVTISS
VL: SYELTQLPSVSVSLGQTARITCGGNSIGSKAVNWYQQKPGLAPGLLIYDDDERPSGVPDRFSGSNSGDTATLTISGAQAGDEADYYCQLWDSSARAFVFGGGTQLTVTG
notes: also called ERR1-TOP54 chimeric rabbit/human IgG1
B8: HuXBR1-402(3)-G5-PNU (Adc456) (other)
VH: B1 VH with Q5R
VL: B1 VL with P8L, P14L, K16Q, V77A, E78Q
modifications: Gly5-EDA-PNU joined by sortase to the C-terminal G5SLPETG tag of the full light chain; Gly5-EDA-PNU joined by sortase to the C-terminal LPETG tag of the full heavy chain
B9: HuXBR1-402(17)-G5-PNU (Adc459) (other)
VH: B1 VH with Q5R
VL: B1 VL
modifications: Gly5-EDA-PNU joined by sortase to the C-terminal G5SLPETG tag of the full light chain; Gly5-EDA-PNU joined by sortase to the C-terminal LPETG tag of the full heavy chain
B10: HuXBR1-402(8)-G5-PNU (Adc457) (other)
VH: B1 VH
VL: B3 VL
modifications: Gly5-EDA-PNU joined by sortase to the C-terminal G5SLPETG tag of the full light chain; Gly5-EDA-PNU joined by sortase to the C-terminal LPETG tag of the full heavy chain
B11: HuXBR1-402(26)-G5-PNU (Adc461) (other)
VH: B1 VH with K43N
VL: B1 VL with P8L, P14L, K16Q, Q41L, V77A, E78Q, K102Q
modifications: Gly5-EDA-PNU joined by sortase to the C-terminal G5SLPETG tag of the full light chain; Gly5-EDA-PNU joined by sortase to the C-terminal LPETG tag of the full heavy chain
B12: HuXBR1-402(19)-G5-PNU (Adc460) (other)
VH: B1 VH with K43N
VL: B1 VL
modifications: Gly5-EDA-PNU joined by sortase to the C-terminal G5SLPETG tag of the full light chain; Gly5-EDA-PNU joined by sortase to the C-terminal LPETG tag of the full heavy chain
B13: HuXBR1-402(15)-G5-PNU (Adc458) (other)
VH: B1 VH
VL: B1 VL
modifications: Gly5-EDA-PNU joined by sortase to the C-terminal G5SLPETG tag of the full light chain; Gly5-EDA-PNU joined by sortase to the C-terminal LPETG tag of the full heavy chain
B14: ERR1-306 (mAb033) IgG with C-terminal sortase and Strep tags (antibody, V domains shown)
VH: QEQLKESGGGLVQPGGSLKLSCKASGFDLSNYGVSWVRQAPGKGLEWIGYIDPTFDYTYYASWVNGRFSISRENTQNTVSLQINSLTPADTATYFCARWVYGVDDYGDGNWLDLWGQGTLVTISS
VL: QFVLTQSPSVSAALGASAKLTCTLSSAHKTYTIDWYQQQQGEAPRYLMELKSDGSYTKGTGVPDRFSGSSSGADRYLIIPSVQADDEADYYCGTDYSGGYVFGGGTQLTVTG
notes: Human IgG1 constant regions
B15: ERR1-324 (mAb034) IgG with C-terminal sortase and Strep tags (antibody, V domains shown)
VH: QSLEESGGGLVQPGESLTLTCTVSGFSLSRNGMTWVRQAPGKGLEWIGIITSSGDKYYATWAKGRFTISKTSSTTVDLKMTSLTTEDTATYFCARGTVSSDIWGPGTLVTISS
VL: ELVLTQTPSPVSAAVGGTVTINCQASQSVYGNNELAWYQQKPGQPPKLLIYRASILTSGVPSRFKGSGSGTQFTLTISNVQREDAATYYCLGGYVSQSYRAAFGGGTELEIL
notes: Human IgG1 constant regions, kappa light chain
B16: XBR1-402 (mAb031) IgG with C-terminal sortase and Strep tags (antibody, V domains shown)
VH: QEQQKESGGGLFKPTDTLTLTCTASGFDISSYYMSWVRQAPGNGLEWIGAIGISGNAYYASWAKSRSTITRNTNLNTVTLKMTSLTAADTATYFCARDHPTYGMDLWGPGTLVTVSS
VL: SYELTQLPSVSVSLGQTARITCEGNNIGSKAVHWYQQKPGLAPGLLIYDDDERPSGVPDRFSGSNSGDTATLTISGAQAGDEADYYCQVWDSSAYVFGGGTQLTVTG
notes: Human IgH-gamma1 and IgL-lambda constant regions
B17: ERR1-301 (mAb027) IgG with C-terminal sortase and Strep tags (antibody, V domains shown)
VH: QEQLEESGGGLVTPGGSLTLTCTASGFTISTYHMSWVRQAPGKGLEWIGSIYAGSGSTYYASWVNGRFTISSNTTQNTVSLQMNSLTVADTATYFCARDHPSYGMDLWGPGTLVTVSS
VL: B7 VL with G63A, G80E, R95V, F97Y
notes: Human IgG1 constant regions
B18: ERR1-Top43 (mAb036) IgG with C-terminal sortase and Strep tags (antibody, V domains shown)
VH: QSLEESGGRLVTPGTPLTLTCTVSGFSLSSYWMSWVRQAPGKGLEWIGAIYGSGNTYYASWAKGRFTISKTSTTVDLKITSPTTEDTATYFCARDVHSTATDLWGPGTLVTISS
VL: B7 VL with S26N, D49N, R95G, F97Y
notes: Human IgG1 constant regions
B19: ERR1-403 (mAb035) IgG with C-terminal sortase and Strep tags (antibody, V domains shown)
VH: QEQLKESGRGLVQPGGSLKLSCKASGFDFSGWYMTWVRQAPGKGLEWIGTIGTTKGRTYYASWVNGRFTISSNAQNTVDLQMNSLTAADRATYFCVRGSDYFDLWGPGTLVTISS
VL: B7 VL with D59A, R95G, F97Y
notes: Human IgG1 constant regions
B20: ERR1-Top43-G5-PNU (adc204) antibody drug conjugate (other)
VH: B18 VH
VL: B7 VL with S26N, D49N, R95G, F97Y
modifications: Gly5-EDA-PNU joined by sortase to the C-terminal G5SLPETG tag of the full light chain; Gly5-EDA-PNU joined by sortase to the C-terminal LPETG tag of the full heavy chain

Molecular target: T1, StrepII-tagged human ROR1 extracellular domain (human, UniProt Q01973 30-406)
T1 construct: extracellular domain; also called ROR1-strep; strep-tagged human ROR1
T1 sequence (Q01973 other isoform, or with tags, fused parts or gaps): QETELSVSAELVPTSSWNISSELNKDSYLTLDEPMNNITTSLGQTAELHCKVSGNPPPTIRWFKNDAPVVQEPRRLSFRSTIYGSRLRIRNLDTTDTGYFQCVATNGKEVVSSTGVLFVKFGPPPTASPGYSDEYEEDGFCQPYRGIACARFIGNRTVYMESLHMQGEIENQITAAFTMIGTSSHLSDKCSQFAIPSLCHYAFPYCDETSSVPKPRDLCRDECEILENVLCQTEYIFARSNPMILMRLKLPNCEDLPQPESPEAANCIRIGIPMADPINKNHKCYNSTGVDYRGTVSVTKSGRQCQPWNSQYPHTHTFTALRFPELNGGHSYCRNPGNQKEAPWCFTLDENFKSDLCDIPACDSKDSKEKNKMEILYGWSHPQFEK
Experiment: SPR (Biacore T200); mAb captured by goat anti-human Fcγ IgG on CM5; ROR1-strep as analyte (Example 8)
Method: Affinity screening was then performed to select the best binders. Affinities were determined using a Biacore T200 instrument (GE Healthcare, Buckinghamshire, UK) and data was evaluated using Biacore Evaluation T200 V2.0 software. To capture mAbs, goat α-human Fc-gamma-specific IgG (Jackson ImmunoResearch, #109-005-098) was covalently immobilized on a CM5 chip (GE Healthcare, #BR-1005-30).

Point of comparison: B5, Kd 3.1 nM. Against it:
- B1 — within 1.5-fold, 3.5 nM
- B2 — within 1.5-fold, 3.4 nM
- B3 — within 1.5-fold, 2.1 nM
- B4 — within 1.5-fold, 3.2 nM
- B6 — within 1.5-fold, 3 nM

Point of comparison: B6, koff 0.00332 s⁻¹. Against it:
- B1 — within 1.5-fold, 0.00394 s⁻¹
- B2 — within 1.5-fold, 0.00322 s⁻¹
- B3 — within 1.5-fold, 0.00276 s⁻¹
- B4 — within 1.5-fold, 0.00375 s⁻¹
- B5 — within 1.5-fold, 0.00328 s⁻¹

Point of comparison: B1, kon 1.11e+06 M⁻¹ s⁻¹. Against it:
- B2 — within 1.5-fold, 960000 M⁻¹ s⁻¹
- B3 — within 1.5-fold, 1.29e+06 M⁻¹ s⁻¹
- B4 — within 1.5-fold, 1.19e+06 M⁻¹ s⁻¹
- B5 — within 1.5-fold, 1.05e+06 M⁻¹ s⁻¹
- B6 — the same, 1.11e+06 M⁻¹ s⁻¹

Molecular target: T2, hROR2 (human, UniProt Q01974)
T2 construct: full length, on the cell surface; also called 63-12 / hROR2; ROR2 on T47D cells
T2 sequence (Q01974 34-943 limits assumed): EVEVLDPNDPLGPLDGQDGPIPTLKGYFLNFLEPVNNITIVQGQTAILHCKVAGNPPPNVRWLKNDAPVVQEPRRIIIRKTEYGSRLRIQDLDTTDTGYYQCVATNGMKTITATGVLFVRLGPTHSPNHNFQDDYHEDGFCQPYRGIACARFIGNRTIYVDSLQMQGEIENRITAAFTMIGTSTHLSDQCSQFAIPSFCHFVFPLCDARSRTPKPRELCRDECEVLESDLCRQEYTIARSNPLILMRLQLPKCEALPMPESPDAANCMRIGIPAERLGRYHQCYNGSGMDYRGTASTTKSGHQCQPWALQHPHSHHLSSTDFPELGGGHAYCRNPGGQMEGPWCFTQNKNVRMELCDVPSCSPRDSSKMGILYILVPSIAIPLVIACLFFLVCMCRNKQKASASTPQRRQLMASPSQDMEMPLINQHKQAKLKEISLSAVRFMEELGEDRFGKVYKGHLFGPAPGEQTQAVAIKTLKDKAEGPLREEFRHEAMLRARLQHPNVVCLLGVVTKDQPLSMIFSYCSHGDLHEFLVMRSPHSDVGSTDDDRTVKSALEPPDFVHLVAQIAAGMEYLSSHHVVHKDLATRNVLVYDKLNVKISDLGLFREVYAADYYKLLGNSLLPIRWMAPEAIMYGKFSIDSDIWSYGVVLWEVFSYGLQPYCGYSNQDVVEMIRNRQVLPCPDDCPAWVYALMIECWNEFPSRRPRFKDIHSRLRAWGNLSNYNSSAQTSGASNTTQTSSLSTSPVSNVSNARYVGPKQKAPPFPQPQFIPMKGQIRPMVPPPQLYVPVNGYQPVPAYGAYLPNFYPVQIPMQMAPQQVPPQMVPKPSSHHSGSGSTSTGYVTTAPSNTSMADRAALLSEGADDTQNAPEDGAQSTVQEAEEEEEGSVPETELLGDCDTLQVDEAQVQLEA
Experiment: flow cytometry on T47D cells (ROR2 positive, ROR1 negative); APC goat anti-human Fcγ
Method: Flow cytometry: Cells were stained using standard flow cytometry methodology. Briefly, for purified anti-ROR1 Fab (FIG. 3), 0.1-1×10⁶ cells were stained with 1000 ng/100 μL of Fab on ice for 1 h. After washing twice with ice-cold flow cytometry buffer (PBS containing 1% (v/v) BSA, 0.1% sodium azide and 1 mM EDTA), the cells were incubated with a 1:1000 dilution of a mouse anti-His tag mAb conjugated to Alexa Fluor 488 (Qiagen) in 100 μL flow cytometry buffer on ice for 30 min. For purified anti-ROR1 IgG1 (FIG. 8), 0.1-1×10⁶ cells were blocked by 4% goat serum for 15 min at room temperature and then incubated with 100 ng/100 μL of IgG on ice for 1 h. After washing twice with ice-cold flow cytometry buffer, cells were stained with a 1:500 dilution of goat anti-human IgG, Fcγ pAbs conjugated to APC (Jackson ImmunoResearch) in 100 μL flow cytometry buffer on ice for 30 min. For commercial goat anti human ROR1 polyclonal antibody (FIG. 8), 0.1-1×10⁶ cells were stained with 200 ng/100 μL of Ab on ice for 1 h. […] Finally, 4′,6-diamidino-2-phenylindole (DAPI) was added to a final concentration of 100 ng/mL to exclude dead cells from the analysis. Cells were analyzed using a FACSCalibur instrument (BD Biosciences) and FlowJo analytical software (Tree Star, Ashland, Oreg.).

B7: no binding (tested: 100 ng/100 µL).

Molecular target: T3, human ROR1, full length, on cells (human, UniProt Q01973 30-937)
T3 sequence (Q01973 30-937): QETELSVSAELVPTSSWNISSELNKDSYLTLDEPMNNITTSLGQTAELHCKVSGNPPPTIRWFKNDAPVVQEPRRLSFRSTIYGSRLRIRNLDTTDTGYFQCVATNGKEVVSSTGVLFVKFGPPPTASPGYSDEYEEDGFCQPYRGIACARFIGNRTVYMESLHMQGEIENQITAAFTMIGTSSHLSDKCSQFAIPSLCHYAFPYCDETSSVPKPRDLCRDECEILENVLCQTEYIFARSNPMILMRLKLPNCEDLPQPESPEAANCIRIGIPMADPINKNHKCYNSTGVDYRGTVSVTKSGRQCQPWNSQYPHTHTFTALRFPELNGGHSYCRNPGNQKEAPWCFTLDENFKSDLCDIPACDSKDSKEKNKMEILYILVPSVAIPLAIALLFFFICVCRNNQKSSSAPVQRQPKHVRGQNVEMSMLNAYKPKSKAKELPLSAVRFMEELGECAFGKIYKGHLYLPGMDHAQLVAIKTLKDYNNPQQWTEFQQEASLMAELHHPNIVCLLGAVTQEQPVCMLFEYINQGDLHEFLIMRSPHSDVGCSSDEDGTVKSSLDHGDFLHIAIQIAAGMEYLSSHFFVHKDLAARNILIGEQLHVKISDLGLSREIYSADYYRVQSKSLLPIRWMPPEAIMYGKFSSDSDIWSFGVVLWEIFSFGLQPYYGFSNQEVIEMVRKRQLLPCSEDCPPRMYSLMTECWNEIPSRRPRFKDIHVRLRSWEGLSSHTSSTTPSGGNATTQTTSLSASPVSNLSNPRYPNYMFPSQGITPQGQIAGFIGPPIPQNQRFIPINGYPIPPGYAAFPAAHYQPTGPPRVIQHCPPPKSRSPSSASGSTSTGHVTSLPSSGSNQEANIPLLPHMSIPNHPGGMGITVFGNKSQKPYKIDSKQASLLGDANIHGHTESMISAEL
Experiment: cell-based or functional assay

Point of comparison: B10, “IC50 values on 697 cells (in vitro cell killing)” value 0.164 µg/mL. Against it:
- B8 — 1.7-fold lower, 0.0981 µg/mL
- B9 — 2.3-fold lower, 0.0706 µg/mL
- B11 — 1.7-fold lower, 0.0939 µg/mL
- B12 — 1.8-fold lower, 0.0917 µg/mL
- B13 — 1.5-fold lower, 0.106 µg/mL

Molecular target: T4, twin strep-tagged human ROR2 extracellular domain (human, UniProt Q01974 34-403)
T4 construct: extracellular domain; Expressed in HEK293T; also called ROR2-ECD-TwinStrep
T4 sequence (Q01974 34-403): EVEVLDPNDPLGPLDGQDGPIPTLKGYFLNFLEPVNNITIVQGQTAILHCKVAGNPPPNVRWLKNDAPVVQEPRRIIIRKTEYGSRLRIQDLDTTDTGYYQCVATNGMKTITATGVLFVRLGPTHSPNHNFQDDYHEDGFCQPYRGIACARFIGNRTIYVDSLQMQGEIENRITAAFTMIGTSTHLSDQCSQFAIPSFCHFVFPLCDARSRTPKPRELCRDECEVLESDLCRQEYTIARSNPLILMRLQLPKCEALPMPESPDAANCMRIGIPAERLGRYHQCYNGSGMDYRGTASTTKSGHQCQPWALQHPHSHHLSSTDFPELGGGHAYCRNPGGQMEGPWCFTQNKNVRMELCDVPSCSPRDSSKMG
Experiment: ELISA on coated twin-strep tagged human ROR2; anti-human Fcγ F(ab')2-HRP; absorbance 490 nm
Method: Each well of a 96-well plate was coated with 100 μL of 2 μg/mL strep-tagged human ROR1 (from Example 5) in 0.1 M bicarbonate coating buffer (pH 9.6), and incubated for 12 h at 4° C. A second 96-well plate was likewise prepared with twin-strep tagged human ROR2 (from Example 5).
HRP-conjugated F(ab′)₂ anti-human FC-gamma (Jackson Immunoresearch, 109-036-008) was then added at a 1:20′000 dilution, 100 μl per well, and incubated for 1 h at 37° C. prior to detection using an Spark 10M plate reader (Tecan).

B14: no binding (tested: about 500 ng/ml).
B15: no binding (tested: about 500 ng/ml).
B16: no binding (tested: about 500 ng/ml).
B17: no binding (tested: about 500 ng/ml).
B18: no binding (tested: about 500 ng/ml).
B19: no binding (tested: about 500 ng/ml).

Molecular target: T3, human ROR1, full length, on cells
Experiment: cell-based or functional assay
Remark: another data set of the same source

In the case of B20, the “IC50 of in vitro cell killing, HS 578T cells (hROR1 status positive)” value is reported as 0.707 µg/mL.

For B20, the “IC50 of in vitro cell killing, MDA-MD-468 cells (hROR1 status positive)” value was 0.143 µg/mL.

Molecular target: T1, StrepII-tagged human ROR1 extracellular …
Experiment: SPR (Biacore T200), mAb captured by anti-human Fc-gamma IgG on CM5, ROR1-strep as analyte

Point of comparison: B3, Kd 2.14 nM. Against it:
- B1 — 1.7-fold higher, 3.55 nM
- B2 — 1.6-fold higher, 3.34 nM
- B4 — within 1.5-fold, 3.16 nM
- B5 — within 1.5-fold, 3.13 nM
- B6 — within 1.5-fold, 2.98 nM
